US11370846B2, “Compositions and methods to regulate Renalase in the treatment of cancer” (Yale University, priority 2014, dated 2022)
“Also recorded” adds a separate entry of the source.

Legend:
[1] = test system: A375.S2 melanoma cells; assay: Cell viability, WST-1, A375.S2 melanoma cells; assay type: cell-based, human; settings: A375.S2, 72 hrs
Protocol: FIG. 19A through FIG. 19D are a series of images and charts showing that inhibition of RNLS signaling is cytotoxic to melanoma cells in vitro. […] FIG. 19B comprises two charts depicting relative cell viability: Left panel: Cells were treated with indicated antibodies for 72 hrs and cell viability was determined using WST-1; m28-RNLS (also known as 1D-28-4), m37-RNLS (also known as 1D-37-10): monoclonal antibodies raised against RNLS peptide RP220; Right panel: A375.S2 cells treated with increasing doses of m28-RNLS for 72 hrs and cell viability determined with a WST-1 assay; n=6, * indicates p<0.05 and ** indicates p<0.005. FIG. 19C comprises representative photos of A375.S2, SkMe128, and SkMe15 after 72 hrs incubation with either control rabbit IgG or m28-RNLS. FIG. 19D is a chart depicting relative cell viability, comprising amino acid (AA) sequence of RNLS peptide antagonist (RP220A).
For additional studies, cell viability was determined using WST-1 reagent (Roche Diagnostics, Indianapolis, Ind., USA) according to the manufacturers' instruction. Absorbances were read using a microplate reader (Power Waves XS, BioTek Instruments, Winooski, Vt., USA).

[2] = test system: A375.S2 xenograft tumors; assay type: in vivo
Protocol: Immunohistochemistry was performed as described previously (Guo et al., 2012 Cancer science. 103:1474-80). Briefly, tumor tissues were formalin-fixed, paraffin-embedded and cut into 5-μm sections on glass slides. The slides were de-paraffinized and hydrated, followed by antigen retrieval in a pressure cooker containing 10 mM sodium citrate, pH6 buffer. The sections were blocked in 3% hydrogen peroxide for 30 min and 2.5% normal horse serum in PBS/0.1% Tween20 for 1 h followed by incubation with primary antibody and isotype control IgG overnight at 4° C. The following antibodies were used in this study: m28-RNLS at 500 ng/ml; goat polyclonal anti-RNLS at 250 ng/ml (Abcam, ab31291); rabbit monoclonal anti-CD68 (BDBioscience, 1:100); rabbit monoclonal anti-CD163 (AbD Serotec, 1:100); rabbit monoclonal anti-CD86 (Abcam, 1:100); rabbit monoclonal anti-Ki67 (Vector Lab, VP-RM04, 1:100); rabbit monoclonal anti-p21, phspho-Tyr^705-Stat3, and total Stat3 (Cell Signaling Technologies, #2947, 1:100, #9145, 1:400, and #4904, 1:400, respectively). ImmPRESS peroxidase-anti-rabbit IgG (Vector Laboratories, Burlingame, Calif., USA) was used to detect primary antibodies. The color was developed using a Vector DAB substrate kit and counterstained with hematoxylin (Vector Laboratories). Slides were observed and photographed using an Olympus BX41 microscope and camera (Olympus America Inc, Center Valley, Pa., USA).
Female athymic, 18-20 g nude mice (nu/nu) were obtained from Charles River (Willimantic, Conn.) and housed in microisolator cages, with autoclaved bedding in a specific pathogen-free facility, with a 12-h light/dark cycle.
Xenograft tumors were established by subcutaneous injection of A375.S2 cells (2×10^6 in 100 μl of PBS, pH 7.6). When the tumors reached a volume of 50-100 mm^3, the mice were divided into a control group (n=14 treated with rabbit IgG, 40 μg by intraperitoneal injection (IP) once weekly, and 40 ug subcutaneously (SQ) around the tumor site every 3 days), and an experimental group (n=14) that received m28-RNLS (40 μg IP, once weekly, and 40 ug SQ, every 3 days). Tumor size was measured with digital calipers and volume was calculated according to the formula (length×width)×π/2.
At the end of the study, the mice were sacrificed, the tumors were excised and immediately snap-frozen in liquid nitrogen and stored at −80° C. Apoptosis was examined using the TUNEL assay (Roche in situ Apoptosis Detection System), according to the manufacturer's instructions. Sections were examined by light microscopy and the apoptosis index was determined by counting >1000 cells in 10 randomly selected high-power fields (×200 magnification).

[3] = test system: BxPC3 xenografted tumors; assay: BxPC3 pancreatic xenograft in athymic nude mice; assay type: in vivo, mouse
Protocol: Immunohistochemistry was performed as described previously (Guo et al., 2012 Cancer Science. 103(8):1474-80). Briefly tumor tissues were formalin-fixed, paraffin-embedded and cut into 5-μm sections on glass slides. The slides were de-paraffinized and hydrated, followed by antigen retrieval in a pressure cooker containing 10 mM sodium citrate, pH6 buffer. The sections were blocked in 3% hydrogen peroxide for 30 min and 2.5% normal horse serum in PBS/0.1% Tween20 for 1 h followed by incubation with primary antibody and isotype control IgG overnight at 4° C. […]
Xenograft tumors were established by subcutaneous injection of BxPC3 cells (2×10^6 in 100 μl of PBS, pH 7.6). […] Tumor size was measured with digital calipers and volume was calculated according to the formula (length×width)×π/2. […] These animals received no further treatments, and tumor size and volume were measured for up to 30 days.
At the end of the study, the mice were sacrificed, the tumors were excised and immediately snap-frozen in liquid nitrogen and stored at −80° C. […] Sections were examined by light microscopy and the apoptosis index was determined by counting >1000 cells in 5 randomly selected high-power fields (×200 magnification).

B1: 1D-28-4: rabbit anti-renalase monoclonal raised against peptide RP-220 (antigen 1D); heavy chain SEQ ID NO:9, light chain SEQ ID NO:10 (antibody)
heavy: METGLRWLLLVAVLKGVQCQSVEESGGRLVTPGTPLTLTCTVSGFSLSSFAVGWVRQAPGKGLEYIGIISSVGITRYASWAAGRFTISKTSTTVDLKITSPTTEDTATYFCARYGYSGDVNRLDLWGQGTLVTVSSGQPKAPSVFPLAPCCGDTPSSTVTLGCLVKGYLPEPVTVTWNSGTLTNGVRTFPSVRQSSGLYSLSSVVSVTSSSQPVTCNVAHPATNTKVDKTVAPSTCSKPTCPPPELLGGPSVFIFPPKPKDTLMISRTPEVTCVVVDVSQDDPEVQFTWYINNEQVRTARPPLREQQFNSTIRVVSTLPIAHQDWLRGKEFKCKVHNKALPAPIEKTISKARGQPLEPKVYTMGPPREELSSRSVSLTCMINGFYPSDISVEWEKNGKAEDNYKTTPAVLDSDGSYFLYSKLSVPTSEWQRGDVFTCSVMHEALHNHYTQKSISRSPGK
light: MDTRAPTQLLGLLLLWLPGATFAQVLTQTASPVSAAVGGTVTINCQASQSVYDNNNLAWYQQKPGQPPKQLIYGASTLASGVSSRFKGSGSGTQFTLTISGVQCDDAATYYCLGEFSCSSADCFAFGGGTEVVVKGDPVAPTVLIFPPSADLVATGTVTIVCVANKYFPDVTVTWEVDGTTQTTGIENSKTPQNSADCTYNLSSTLTLTSTQYNSHKEYTCKVTQGTTSVVQSFNRGDC
modifications: oryctolagus cuniculus
**Q.** B1 was tested. Which “cytotoxicity with increasing dose” value [1] did it give?
**A.** Its value is “increasing levels of cytotoxicity in correlation with increasing treatment concentrations”.

**Q.** And the Ki67 positive cells ([2]; IHC of xenografted tumors)?
**A.** The Ki67 positive cells was 13.4±3.0 positive cells/high power field.

**Q.** What about the p21 positive cells ([2]; IHC of xenografted tumors) of the same molecule?
**A.** Its p21 positive cells is 24.2±2.4 positive cells.

**Q.** And the “number of CD163+ TAMs” value ([2]; immunofluorescence of xenografts, listed as m28-RNLS)?
**A.** The value was “decreases CD163+TAMs”.

**Q.** And the “total and phosphorylated STAT3 in tumors” value ([2]; immunofluorescence, listed as m28-RNLS)?
**A.** The value was “marked reduction; also recorded: dramatic reduction”.

**Q.** What about the “ratio of CD86+ to CD163+ TAMs” value ([2]; mouse, in vivo) of the same molecule?
**A.** The value was “increases the ratio”.

**Q.** What about the “toxicity of antibody treatment” value ([2]; overall animal health and activity) of the same molecule?
**A.** The value was “did not appear to be toxic”.

**Q.** What about the “mouse RNLS expression in tumor mass” value ([2]; qPCR, mouse specific primers) of the same molecule?
**A.** The value was “significant reduction”.

**Q.** What about the “p-Y705-STAT3 and total STAT3 in tumors” value ([2]; western blot) of the same molecule?
**A.** Its value is “significantly decreased”.

**Q.** And the p21 positive cells ([3]; IHC)?
**A.** Its p21 positive cells is 178.1±11.4 positive cells/high power field.

**Q.** What about the “decrease in expression of Ki67 vs IgG” value ([3]; mouse, in vivo) of the same molecule?
**A.** The value was 2.5 fold.
